Values joined by “and” are separate entries in the source; they are usually repeats but may differ in a detail not shown here. Equal values may be shown once. Read-outs that look alike come from different tables or passages of the source.
B1: E. coli PriA helicase (enzyme, UniProt P17888 1-732, looked up)
chain: MPVAHVALPVPLPRTFDYLLPEGMTVKAGCRVRVPFGKQQERIGIVVSVSDASELPLNELKAVVEVLDSEPVFTHSVWRLLLWAADYYHHPIGDVLFHALPILLRQGRPAANAPMWYWFATEQGQAVDLNSLKRSPKQQQALAALRQGKIWRDQVATLEFNDAALQALRKKGLCDLASETPEFSDWRTNYAVSGERLRLNTEQATAVGAIHSAADTFSAWLLAGVTGSGKTEVYLSVLENVLAQGKQALVMVPEIGLTPQTIARFRERFNAPVEVLHSGLNDSERLSAWLKAKNGEAAIVIGTRSALFTPFKNLGVIVIDEEHDSSYKQQEGWRYHARDLAVYRAHSEQIPIILGSATPALETLCNVQQKKYRLLRLTRRAGNARPAIQHVLDLKGQKVQAGLAPALITRMRQHLQADNQVILFLNRRGFAPALLCHDCGWIAECPRCDHYYTLHQAQHHLRCHHCDSQRPVPRQCPSCGSTHLVPVGLGTEQLEQTLAPLFPGVPISRIDRDTTSRKGALEQQLAEVHRGGARILIGTQMLAKGHHFPDVTLVALLDVDGALFSADFRSAERFAQLYTQVAGRAGRAGKQGEVVLQTHHPEHPLLQTLLYKGYDAFAEQALAERRMMQLPPWTSHVIVRAEDHNNQHAPLFLQQLRNLILSSPLADEKLWVLGPVPALAPKRGGRWRWQILLQHPSRVRLQHIINGTLALINTIPDSRKVKWVLDVDPIEG

What was measured:
E. coli PriA helicase [1] = target: B1; experiment: ITC
[2] = target: T1, χ subunit of DNA polymerase III holoenzyme (E. coli, UniProt P28905 1-147); experiment: ITC
[3] = target: T1, χ subunit of DNA polymerase III …; experiment: ITC; remark: listed apart in the source
E. coli PriA helicase [4] = target: B1; experiment: ITC; remark: listed apart in the source
E. coli PriA helicase [5] = target: B1; experiment: ITC; remark: listed apart in the source
[6] = target: T1, χ subunit of DNA polymerase III …; experiment: ITC; remark: listed apart in the source
E. coli PriA helicase [7] = target: B1; experiment: ITC; remark: listed apart in the source
E. coli PriA helicase [8] = target: B1; experiment: ITC; remark: listed apart in the source
E. coli PriA helicase [9] = target: B1; experiment: ITC; remark: listed apart in the source
[10] = target: T1, χ subunit of DNA polymerase III …; experiment: ITC; remark: listed apart in the source
[11] = target: E. coli single stranded DNA binding (SSB) protein (E. coli, UniProt P0AGE0 1-178); experiment: AUC
Sequence of E. coli single stranded DNA binding (SSB) protein (P0AGE0 whole entry): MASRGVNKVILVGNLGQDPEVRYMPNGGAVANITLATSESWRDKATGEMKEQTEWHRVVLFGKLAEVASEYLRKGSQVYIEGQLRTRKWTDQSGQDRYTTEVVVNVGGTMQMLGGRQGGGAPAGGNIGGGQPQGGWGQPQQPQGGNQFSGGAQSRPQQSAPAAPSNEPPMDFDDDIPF

T1 sequence (P28905 whole entry): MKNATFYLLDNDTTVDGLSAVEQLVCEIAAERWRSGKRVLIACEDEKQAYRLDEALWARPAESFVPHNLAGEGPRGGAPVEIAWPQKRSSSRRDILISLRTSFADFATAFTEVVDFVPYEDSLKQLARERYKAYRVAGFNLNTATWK

| Binder | Ka (E. coli PriA helicase [1]) [M⁻¹] | dH (E. coli PriA helicase [1]) [kcal/mol] | stoichiometry N (E. coli PriA helicase [1]) | Ka [2] [M⁻¹] | dH [2] [kcal/mol] | stoichiometry N [2] | Ka [3] [M⁻¹] | dH [3] [kcal/mol] | stoichiometry N [3] | Ka (E. coli PriA helicase [4]) [M⁻¹] | dH (E. coli PriA helicase [4]) [kcal/mol] | stoichiometry N (E. coli PriA helicase [4]) | Ka (E. coli PriA helicase [8]) [M⁻¹] | dH (E. coli PriA helicase [8]) [kcal/mol] | stoichiometry N (E. coli PriA helicase [8]) | also measured |
| --- | --- | --- | --- | --- | --- | --- | --- | --- | --- | --- | --- | --- | --- | --- | --- | --- |
| MDFDDDIPF [P9, synthetic peptide of the last 9 amino acids of the SSB C-terminus] | 2e+06 | -6.7 ± 0.3 | 0.89 ± 0.05 | 800000 | -8.2 ± 0.4 | 0.92 ± 0.04 | 1.6e+06 | -7.9 ± 0.4 | 1 ± 0.1 | 180000 | -17.3 ± 0.6 | 0.81 ± 0.12 |  |  |  |  |
| WMDFDDDIPF [WP9, modified P9 peptide containing a Trp residue on the N terminal side] |  |  |  |  |  |  | 1.2e+06 | -8 ± 0.3 | 1.02 ± 0.03 | 230000 | -13 ± 1.3 | 1.1 ± 0.1 | 1.6e+06 | -14.5 ± 0.5 | 0.95 ± 0.02 | Ka (E. coli PriA helicase [5]): 3.4e+06 M⁻¹; dH (E. coli PriA helicase [5]): -17.6 ± 0.2 kcal/mol; Ka [6]: 1.6e+06 M⁻¹; Ka (E. coli PriA helicase [7]): 410000 M⁻¹ and 404000 M⁻¹; dH (E. coli PriA helicase [7]): -13.9 kcal/mol and -14.4 kcal/mol; stoichiometry N (E. coli PriA helicase [7]): 0.91 ± 0.11; Ka (E. coli PriA helicase [9]): 225000 M⁻¹; dH (E. coli PriA helicase [9]): -13.7 ± 0.2 kcal/mol; stoichiometry N (E. coli PriA helicase [9]): 1.01 ± 0.1; Ka [10]: 300000 M⁻¹; dH [10]: -9.2 ± 0.4 kcal/mol; stoichiometry N [10]: 0.96 ± 0.03 |
| PSNEPPMDFDDDIPF [P15, synthetic peptide of the last 15 amino acids of the SSB C-terminus] | 1.6e+06 | -7 ± 0.5 | 1.03 ± 0.06 | 800000 | -7.7 ± 0.4 | 0.88 ± 0.04 | 1.5e+06 | -9.5 ± 0.3 | 0.91 ± 0.02 | 360000 | -14 ± 0.6 | 0.92 ± 0.03 | 2.7e+06 | -20.7 ± 0.8 | 0.9 ± 0.02 |  |
| B1 |  |  |  |  |  |  |  |  |  |  |  |  |  |  |  | stoichiometry N [11]: ≥ 3 |

— paper PMC2861366 (Biochemistry, 2010)
